Experimental findings from patent US20190300625A1 (Regeneron, published 2019) are described below.

The target of assay [1] is T1, hTMPRSS2 knob_mmh (W106-R255).mmh (human).
T1 construct: also called hTMPRSS2.mmh; HMM-hTMPRSS2
Kind of assay: SPR (Biacore 4000), mAb captured by anti-mouse Fc, HMM-hTMPRSS2 as analyte, 37 C. Background: In SPR one partner is held on a chip, and binding of the other changes the refractive index at the surface.

In assay [2] the target is T2, mfTMPRSS2 knob_mmh (W106-R255).mmh (monkey).
T2 construct: also called mfTMPRSS2.mmh; HMM-mfTMPRSS2
T2 sequence (chain, as listed by the source limits assumed): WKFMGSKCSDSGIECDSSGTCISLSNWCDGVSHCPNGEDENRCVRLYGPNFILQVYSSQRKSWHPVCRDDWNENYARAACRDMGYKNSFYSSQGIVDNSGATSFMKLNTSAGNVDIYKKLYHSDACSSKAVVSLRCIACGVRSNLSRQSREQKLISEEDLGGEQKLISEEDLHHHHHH
The assay is described as follows: SPR (Biacore 4000), mAb captured by anti-mouse Fc, HMM-mfTMPRSS2 as analyte, 25 C.

Assay [3] deals with T1, hTMPRSS2 knob_mmh (W106-R255).mmh. Kind of assay: SPR (Biacore 4000), mAb captured by anti-mouse Fc, HMM-hTMPRSS2 as analyte, 25 C.
Assay [4] concerns the target T2, mfTMPRSS2 knob_mmh (W106-R255).mmh. The assay is described as follows: SPR (Biacore 4000), mAb captured by anti-mouse Fc, HMM-mfTMPRSS2 as analyte, 37 C.

T1 sequence (chain, as listed by the source limits assumed): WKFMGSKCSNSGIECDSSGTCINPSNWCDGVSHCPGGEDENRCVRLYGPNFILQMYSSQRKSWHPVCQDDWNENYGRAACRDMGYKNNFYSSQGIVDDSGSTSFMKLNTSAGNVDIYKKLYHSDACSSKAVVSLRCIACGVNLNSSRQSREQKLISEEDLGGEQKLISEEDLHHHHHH

B1: H2aM7017N (antibody, V domains shown)
VH: QVQLVESGGGVVQPGRSLRLSCAASGFTFSSYGMHWVRQSPGKGLEWVAVIWNDGSYVYYADSVKGRFTISRDISKNTLFLQMNSLRAEDTAVYYCAREGEWVLYYFDYWGQGTLVTVSS
VL: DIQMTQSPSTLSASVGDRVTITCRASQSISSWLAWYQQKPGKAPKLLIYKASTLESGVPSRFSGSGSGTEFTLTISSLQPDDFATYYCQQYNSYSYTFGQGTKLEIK
notes: also called anti-TMPRSS2 monoclonal antibody (Biacore)
As usually defined, the Kd is a measure of binding affinity in units of concentration. A low value points to higher affinity. Broadly, the koff is the rate constant with which the complex falls apart. Low readings indicate a long-lived complex, high ones a short-lived complex. Broadly, the kon is a measure of how fast the partners come together. High values mean fast association, low ones slow association. As a reminder, the t½ is the time needed for the level to fall by half in the phase considered. High values mean slow loss, low ones fast loss. Consider B1, for which, in assay [1], binding was characterised by a dissociation constant (Kd) of 9.31 nM, the koff is 0.00323 s⁻¹, the on-rate (kon) came out at 347000 M⁻¹ s⁻¹ and the t½ was 3.6 min. In assay [2], this molecule gave a Kd of 56 nM, a koff of 0.0157 s⁻¹, a kon of 280000 M⁻¹ s⁻¹ and a t½ of 0.7 min. In assay [3], this molecule returned a Kd of 2.81 nM, an off-rate (koff) of 0.000745 s⁻¹, an on-rate (kon) of 265000 M⁻¹ s⁻¹ and a t½ of 15.5 min. In assay [4], binding was characterised by a dissociation constant (Kd) of 140 nM, the koff is 0.0512 s⁻¹, the on-rate constant (kon) came to 366000 M⁻¹ s⁻¹ and the t½ was 0.2 min.
